Laboratory results from publication PMC2175290 (The Journal of Cell Biology, 2000).

B1: untagged full-length Mex67p (natural protein)
chain: MSGFHNVGNINMMAQQQMQQNRIKISVRNWQNATMNDLINFISRNARVAVYDAHVEGPLVIGYVNSKAEAESLMKWNGVRFAGSNLKFELLDNNGASAGTSDTISFLRGVLLKRYDPQTKLLNLGALHSDPELIQKGVFSSISTQSKMFPAMMKLASTEKSLIVESVNLADNQLKDISAISTLAQTFPNLKNLCLANNQIFRFRSLEVWKNKFKDLRELLMTNNPITTDKLYRTEMLRLFPKLVVLDNVIVRDEQKLQTVYSLPMKIQQFFFENDALGQSSTDFATNFLNLWDNNREQLLNLYSPQSQFSVSVDSTIPPSTVTDSDQTPAFGYYMSSSRNISKVSSEKSIQQRLSIGQESINSIFKTLPKTKHHLQEQPNEYSMETISYPQINGFVITLHGFFEETGKPELESNKKTGKNNYQKNRRYNHGYNSTSNNKLSKKSFDRTWVIVPMNNSVIIASDLLTVRAYSTGAWKTASIAIAQPPQQQASVLPQVASMNPNITTPPQPQPSVVPGGMSIPGAPQGAMVMAPTLQLPPDVQSRLNPVQLELLNKLHLETKLNAEYTFMLAEQSNWNYEVAIKGFQSSMNGIPREAFVQF
B2: His6-Mtr2p (natural protein)
chain: MNTNSNTMVMNDANQAQITATFTKKILAHLDDPDSNKLAQFVQLFNPNNCRIIFNATPFAQATVFLQMWQNQVVQTQHALTGVDYHAIPGSGTLICNVNCKVRFDESGRDKMGQDATVPIQPNNTGNRNRPNDMNKPRPLWGPYFGISLQLIIDDRIFRNDFNGVISGFNYNMVYKPEDSLLKI
B3: GST-GLFG_(Nup116) (domain or fragment)
chain: YQAGRKFGTSQNGTGTTFNNPQGTTNTGFGIMGNNNSTTSATTGGLFGQKPATGMFGTGTGSGGGFGSGATNSTGLFGSSTNLSGNSAFGANKPATSGGLFGNTTNNPTNGTNNTGLFGQQNSNTNGGLFGQQQNSFGANNVSNGGAFGQVNRGAFPQQQTQQGSGGIFGQSNANANGGAFGQQQGTGALFGAKPASGGLFGQSAGSKAFGMNTNPTGTTGGLFGQTNQQQSGGGLFGQQQNSNAGGLFGQNNQSQNQSGLFGQQNSSNAFGQPQQQGGLFGSKPAGGLFGQQQGASTFASGNAQNNSIFGQNNQQQQSTGGLFGQQNNQSQSQPGGLFGQTNQNNNQPFGQNGLQQPQQNNSLFGAKPTGFGNTSLFSNSTTNQSNGISGNNLQQQSGGLFQNKQQPASGGLFGSKPSNTVGGGLFGNNQVANQNNPASTSGGLFGSKPATGSLFGGTNSTAPNASSGGIFGSNNASNTAATTNSTGLFGNKPVGAGASTSAGGLFGNNNNSSLNNSNGSTGLFGSNNTSQSTNAGGLFQNNTSTNTSGGGLFSQPSQSMAQSQNALQQ
B4: GST-FG_(Nup159) (domain or fragment)
chain: QSQSSSTFGAPSFGSSAFKIDLPSVSSTSTGVASSEQDATDPASAKPVFGKPAFGAIAKEPSTSEYAFGKPSFGAPSFGSGKSSVESPASGSAFGKPSFGTPSFGSGNSSVEPPASGSAFGKPSFGTPSFGSGNSSAEPPASGSAFGKPSFGTSAFGTASSNETNSGSIFGKAAFGSSSFAPANNELFGSNFTISKPTVDSPKEVDSTSPFPSSGDQSEDESKSDVDSSSTPFGTKPNTSTKPKTNAFDFGSSSFGSGFSKALESVGSDTTFKFGTQASPFSSQLGNKSPFSSFTKDDTENGSLSKGSTSEINDDNEEHESNGPNVSGNDLTDSTVEQTSSTRLPETPSDEDGEVVEEEAQKSPIGKLTETIKKSANIDMAGLKNPVFGNHVKAKSESPFSAFATNITKPSSTTPAFSFGNSTMNKSNTSTVSPMEEADTKETS

Legend:
[1] = target: B2; assay: AUC
[2] = target: B1; assay: pull-down
[3] = target: T1, Mex67p/His6-Mtr2p complex (S. cerevisiae | yeast, UniProt Q99257;P34232); assay: pull-down
T1 sequence 1: B1 chain
T1 sequence 2: B2 chain

[4] = target: T2, Mex67pΔC1/His6-Mtr2p complex (S. cerevisiae | yeast, UniProt Q99257;P34232); assay: pull-down
T2 sequence 1: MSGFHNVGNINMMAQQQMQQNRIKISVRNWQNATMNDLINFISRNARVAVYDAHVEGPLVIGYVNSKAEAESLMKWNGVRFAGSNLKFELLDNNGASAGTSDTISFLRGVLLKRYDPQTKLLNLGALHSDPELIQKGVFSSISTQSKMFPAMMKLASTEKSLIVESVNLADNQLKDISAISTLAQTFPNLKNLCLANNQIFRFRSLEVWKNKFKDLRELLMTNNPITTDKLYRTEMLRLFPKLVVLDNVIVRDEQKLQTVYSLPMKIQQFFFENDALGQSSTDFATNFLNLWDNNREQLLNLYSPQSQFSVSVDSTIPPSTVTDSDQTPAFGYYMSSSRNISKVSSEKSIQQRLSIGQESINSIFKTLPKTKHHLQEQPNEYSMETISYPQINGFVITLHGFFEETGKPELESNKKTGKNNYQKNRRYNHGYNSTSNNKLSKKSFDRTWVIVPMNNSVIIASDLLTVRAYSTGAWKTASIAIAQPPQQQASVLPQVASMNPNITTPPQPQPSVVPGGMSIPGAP
T2 sequence 2: B2 chain

Binder | stoichiometry N [1] | binding result [2] | binding result [3] | binding result [4]
B1 | 1 |  |  | 
B2 |  | binds |  | 
B3 |  |  | binds | binds
B4 |  |  | binds | binds
